Measurements as given in patent publication US20250352581A1 (NEOMICS PHARMACEUTIALS, published 2025).

Biological target: PD-L1 expressed on target cells (K562-PDL1, A375-PDL1, A549-HLA-A2/PDL1) (UniProt Q9NZQ7 19-290, limits assumed)
Assay: cell-based or functional assay

Chain of PD-L1 expressed on target cells (K562-PDL1, A375-PDL1, A549-HLA-A2/PDL1) (Q9NZQ7 19-290 limits assumed): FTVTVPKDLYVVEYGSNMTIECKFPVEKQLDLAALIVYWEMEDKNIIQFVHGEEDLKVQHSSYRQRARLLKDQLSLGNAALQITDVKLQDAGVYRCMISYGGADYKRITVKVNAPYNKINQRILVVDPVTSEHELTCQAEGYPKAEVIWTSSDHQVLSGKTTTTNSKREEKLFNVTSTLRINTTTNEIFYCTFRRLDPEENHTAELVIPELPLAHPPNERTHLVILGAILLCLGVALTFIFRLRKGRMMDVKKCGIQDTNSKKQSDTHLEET

B1: PD1-28-TNR9(41BBt) PD-1 chimeric co-stimulatory receptor (PD-1 extracellular domain_CD28 stalk, transmembrane and signaling domain_truncated 4-1BB signaling … (receptor)
chain: FLDSPDRPWNPPTFSPALLVVTEGDNATFTCSFSNTSESFVLNWYRMSPSNQTDKLAAFPEDRSQPGQDCRFRVTQLPNGRDFHMSVVRARRNDSGTYLCGAISLAPKAQIKESLRAELRVTERRAEVPTAHPSPSPRPALFPGPSKPFWVLVVVGGVLACYSLLVTVAFIIFWVRSKRSRLLHSDYMNMTPRRPGPTRKHYQPYAPPRDFAAYRSQPFMRPVQTTQEEDGCSCRFPEEEEGGCEL
  T cell expansion (GSK-794 and 2007 TCR T cells on A375-PDL1 cells): ≥ 60 fold
